Measurements published in patent US20150087552A1.

Experiments:
[1] = target: Kv2.1 "wild-type" base construct hKv2.1-m7-c3 (human Kv2.1, residues 1-858, mutated to confer AgTx2 (human) (UniProt Q14721)); assay: cell-based or functional assay
[2] = target: Kv2.1 R300S (on the hKv2.1-m7-c3 base construct) (human) (UniProt Q14721); assay: cell-based or functional assay

Chain of AgTx2 (Agitotoxin-2 / agitoxin 2, scorpion toxin) (P46111 whole entry): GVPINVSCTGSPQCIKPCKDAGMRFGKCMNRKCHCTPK

**Q.** How did the mean inhibition of the maximal outward (alpha pore) current at +60 mV by 1 nM AgTx2, two-electrode voltage clamp, Xenopus oocytes [1] turn out when “AgTx2 (Agitotoxin-2 / agitoxin 2, scorpion toxin) (from UniProt P46111 1-38) (peptide)” was run?
**A.** The mean inhibition of the maximal outward (alpha pore) current at +60 mV by 1 nM AgTx2, two-electrode voltage clamp, Xenopus oocytes was 66.5%.

**Q.** What about the mean inhibition of the maximal outward (alpha pore) current at +60 mV by 1 nM AgTx2, two-electrode voltage clamp, Xenopus oocytes [2] of the same substance?
**A.** Its mean inhibition of the maximal outward (alpha pore) current at +60 mV by 1 nM AgTx2, two-electrode voltage clamp, Xenopus oocytes is 67.8%.
